From US20170313756A1
Where two headings read alike, the source gives them in different places.

Legend:
Test in all cases: 125I-NDP-MSH competition, HEK293 membranes
[1] = molecular target: melanocortin 1 receptor (MC1R) (UniProt Q01726)
[2] = molecular target: melanocortin 5 receptor (MC5R) (UniProt P33032)
[3] = molecular target: melanocortin 1 receptor (MC1R) (UniProt Q01726); remark: listed apart in the source
[4] = molecular target: melanocortin 1 receptor (MC1R) (UniProt Q01726); remark: listed apart in the source

melanocortin 1 receptor (MC1R), sequence (Q01726 whole entry): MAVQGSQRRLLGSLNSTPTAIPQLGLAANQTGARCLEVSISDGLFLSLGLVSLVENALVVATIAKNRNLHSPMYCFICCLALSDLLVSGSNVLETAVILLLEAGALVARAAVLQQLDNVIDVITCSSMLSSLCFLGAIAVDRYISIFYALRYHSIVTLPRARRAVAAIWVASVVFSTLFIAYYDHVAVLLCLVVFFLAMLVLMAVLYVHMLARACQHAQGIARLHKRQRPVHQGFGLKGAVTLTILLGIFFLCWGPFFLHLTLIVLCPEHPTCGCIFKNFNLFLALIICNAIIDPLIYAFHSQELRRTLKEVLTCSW
melanocortin 5 receptor (MC5R), sequence (P33032 whole entry): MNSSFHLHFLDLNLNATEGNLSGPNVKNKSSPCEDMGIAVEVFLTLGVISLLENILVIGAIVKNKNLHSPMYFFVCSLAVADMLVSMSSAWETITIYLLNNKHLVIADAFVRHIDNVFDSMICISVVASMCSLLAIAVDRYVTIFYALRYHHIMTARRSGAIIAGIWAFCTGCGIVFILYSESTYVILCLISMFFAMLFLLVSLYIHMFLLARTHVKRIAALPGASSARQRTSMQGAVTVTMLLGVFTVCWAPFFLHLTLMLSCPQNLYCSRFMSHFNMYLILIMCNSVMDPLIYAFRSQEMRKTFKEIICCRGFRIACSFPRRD

Ki [1]: 4.6 nM
Ki [2]: 25000 nM
Ki [3]: 4 nM
Ki [4]: 4.1 nM
Substance: retro-inverso α-MSH (peptide)
